The text below walks through data of patent publication US20230037682A1.

pKd: −log10 of the molar value.

This assay concerns the target CD3 peptide. The experiment in a line: SPR (Biacore); 25 °C.

Regarding J6MO_SP34 (sp34), the negative logarithm of the Kd (pKd) is 7.86.
